Reference: patent US20060270596A1 (CENTRE NATIONAL DE LA RECHERCHE SCIENTIFIQUE CNRS, published 2006)

T1: THAP1 chemokine-binding domain/IgG1-Fc fusion constructed as described in Example 18B (THAP1 amino acids … (human, UniProt Q5RCE4 140-213 (Pongo abelii entry)))
T1 construct: Secreted with an immunoglobulin kappa light chain signal peptide (left out); also called Chemotrap-I; Chemotrap; not shown: human IgG1-Fc polypeptide from the N-terminal hinge region to the native C-terminus (hinge, CH2, CH3)
T1 sequence: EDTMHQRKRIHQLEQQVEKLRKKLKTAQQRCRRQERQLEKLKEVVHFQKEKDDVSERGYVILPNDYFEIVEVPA

T2: human THAP1 (THanatos-Associated-Protein-1), full length (human, UniProt Q9NVV9 1-213)
T2 construct: these tags are not written into the chain; also called hTHAP1; THAP1 wild type
T2 sequence: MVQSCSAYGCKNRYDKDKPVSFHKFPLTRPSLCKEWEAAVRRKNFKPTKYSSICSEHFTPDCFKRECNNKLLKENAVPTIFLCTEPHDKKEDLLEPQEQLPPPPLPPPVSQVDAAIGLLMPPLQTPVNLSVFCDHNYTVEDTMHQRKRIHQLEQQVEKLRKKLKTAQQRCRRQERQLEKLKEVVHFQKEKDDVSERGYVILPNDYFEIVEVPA

T3: THAP1-C2 deletion mutant (amino acids 120-213) (human, UniProt Q9NVV9 120-213)
T3 construct: Gal4 fusion, in vitro translation product or GFP fusion according to assay
T3 sequence: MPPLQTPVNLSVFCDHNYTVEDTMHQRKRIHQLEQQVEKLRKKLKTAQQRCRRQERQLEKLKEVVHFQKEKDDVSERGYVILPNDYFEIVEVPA

T4: THAP1-N2 deletion mutant (amino acids 1-166) (human, UniProt Q9NVV9 1-166)
T4 construct: Gal4 fusion, in vitro translation product or GFP fusion according to assay
T4 sequence: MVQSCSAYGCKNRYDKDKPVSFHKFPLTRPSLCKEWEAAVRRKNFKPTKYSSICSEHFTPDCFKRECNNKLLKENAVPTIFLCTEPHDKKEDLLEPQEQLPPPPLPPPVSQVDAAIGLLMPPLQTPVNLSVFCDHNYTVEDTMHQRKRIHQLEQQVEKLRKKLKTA

T5: THAP1-C3 deletion mutant (amino acids 143-213) (human, UniProt Q9NVV9 143-213)
T5 construct: Gal4 fusion, in vitro translation product or GFP fusion according to assay
T5 sequence: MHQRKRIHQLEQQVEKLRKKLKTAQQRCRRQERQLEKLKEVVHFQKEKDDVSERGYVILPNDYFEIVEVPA

T6: THAP1-N3 deletion mutant (amino acids 1-192) (human, UniProt Q9NVV9 1-192)
T6 construct: Gal4 fusion, in vitro translation product or GFP fusion according to assay
T6 sequence: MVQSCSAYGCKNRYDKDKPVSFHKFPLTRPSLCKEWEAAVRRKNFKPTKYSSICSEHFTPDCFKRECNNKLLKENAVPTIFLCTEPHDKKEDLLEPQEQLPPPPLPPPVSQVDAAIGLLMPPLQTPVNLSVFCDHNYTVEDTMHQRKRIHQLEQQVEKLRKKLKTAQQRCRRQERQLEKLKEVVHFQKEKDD

T7: THAP1-C1 deletion mutant (amino acids 90-213) (human, UniProt Q9NVV9 90-213)
T7 construct: Gal4 fusion, in vitro translation product or GFP fusion according to assay; also called THAP1-CL; THAP1ΔTHAP
T7 sequence: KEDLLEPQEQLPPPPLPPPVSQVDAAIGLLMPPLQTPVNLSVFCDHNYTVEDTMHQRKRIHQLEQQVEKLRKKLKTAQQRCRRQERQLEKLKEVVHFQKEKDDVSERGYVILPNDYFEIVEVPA

T8: THAP1-N1 deletion mutant (amino acids 1-90) (human, UniProt Q9NVV9 1-90)
T8 construct: Gal4 fusion, in vitro translation product or GFP fusion according to assay; also called zinc finger domain of THAP1
T8 sequence: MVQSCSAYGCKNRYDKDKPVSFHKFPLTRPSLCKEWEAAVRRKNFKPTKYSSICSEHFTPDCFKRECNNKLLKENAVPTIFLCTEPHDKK

T9: human THAP3, full length (human, UniProt Q8WTV1 1-239)
T9 construct: Two-hybrid fusion or 35S-labelled in vitro translation product
T9 sequence: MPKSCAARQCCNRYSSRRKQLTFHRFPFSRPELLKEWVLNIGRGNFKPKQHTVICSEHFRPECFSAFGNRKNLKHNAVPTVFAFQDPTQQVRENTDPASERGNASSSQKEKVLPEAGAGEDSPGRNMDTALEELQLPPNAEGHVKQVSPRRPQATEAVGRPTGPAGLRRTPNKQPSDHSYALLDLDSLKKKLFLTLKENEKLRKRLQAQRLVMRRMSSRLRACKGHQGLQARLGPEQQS

T10: THAP1ΔQRCRR mutant (deletion of residues 168-172) (human, UniProt Q9NVV9 1-213)
T10 sequence: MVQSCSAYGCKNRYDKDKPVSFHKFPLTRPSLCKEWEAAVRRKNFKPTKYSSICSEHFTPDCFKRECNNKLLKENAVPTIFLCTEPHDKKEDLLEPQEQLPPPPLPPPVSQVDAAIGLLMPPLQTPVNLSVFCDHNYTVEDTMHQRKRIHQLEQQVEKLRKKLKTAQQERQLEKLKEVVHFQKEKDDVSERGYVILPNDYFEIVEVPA

B1: purified recombinant human Rantes/CCL5 (purchased from Chemicon) (ligand)
chain: SPYSSDTTPCCFAYIARPLPRAHIKEYFYTSGKCSNPAVVFVTRKNRQVCANPEKKWVREYINSLEMS
notes: Bought protein; also called recombinant Rantes/CCL5 human chemokine
B2: human prostate apoptosis response-4 (PAR4), full length (other)
chain: MATGGYRTSSGLGGSTTDFLEEWKAKREKMRAKQNPPGPAPPGGGSSDAAGKPPAGALGTPAAAAANELNNNLPGGAPAAPAVPGPGGVNCAVGSAMLTRAPPARGPRRSEDEPPAASASAAPPPQRDEEEPDGVPEKGKSSGPSARKGKGQIEKRKLREKRRSTGVVNIPAAECLDEYEDDEAGQKERKREDAITQQNTIQNEAVNLLDPGSSYLLQEPPRTVSGRYKSTTSVSEEDVSSRYSRTDRSGFPRYNRDANVSGTLVSSSTLEKKIEDLEKEVVTERQENLRLVRLMQDKEEMIGKLKEEIDLLNRDLDDIEDENEQLKQENKTLLKVVGQLTR
notes: Gal4-BD or Gal4-AD fusion in two-hybrid; also called Par4 wild type

Tests used:
[1] = molecular target: T1, THAP1 chemokine-binding domain/IgG1-Fc …; assay: SPR (Biacore 3000); Fc fusion amine-coupled to a C1 sensor chip, Rantes/CCL5 as analyte at 25, 50, 100 and 200 nM; KD=kd/ka
Text: (§1) In this Example, surface plasmon resonance (SPR) was used to determine the dissociation constant for the binding of Rantes/CCL5 to a THAP1 chemokine binding domain/IgG1-Fc fusion prepared as described in Example 18B. All SPR measurements were made using a Biacore 3000 system (Biacore, Uppsala Sweden). […] Dextran layer free biosensors, C1 type, were used to assay specific interaction between Rantes/CCL5 and the THAP1 chemokine-binding domain/IgG1-Fc fusion. Purified recombinant human Rantes/CCL5 (purchased from Chemicon) were used as analyte protein at a fixed concentration in the fluid phase (10 mM HEPES pH 7.4, 150 mM NaCl, 3 mM EDTA, 0.005% P20 surfactant, as a running buffer), and at a constant flow of 20 μl/minute. To determine the binding kinetics, association and dissociation curves were established for several increasing concentration of chemokine: 25 nM, 50 nM, 100 nM and 200 nM for CCL5, respectively. Chemokine was injected during the association phase for 4 minutes (20 μl/minute). The dissociation phase was carried out over a period of 5 minutes. Between each phase of association-dissociation, the flow cells were regenerated by injection of 0.05% SDS (30 seconds at a flow rate of 20 μl/minute). Biaevaluation (Biacore) software was used for calculations of association and dissociation kinetic constants. […]
(§2) The dissociation constant was calculated to be 49 nM.

[2] = molecular target: T1, THAP1 chemokine-binding domain/IgG1-Fc …; assay: surface plasmon resonance (Biacore), Chemotrap-I coupled to the chip, CCL5/RANTES at 25, 50, 100 and 200 nM as analyte
Text: as §1, §2

[3] = molecular target: T2, human THAP1 …; assay: yeast two-hybrid, both orientations
Method: To identify potential protein partners of THAP1, screening of the two-hybrid HEVEC cDNA library was performed using as a bait the human THAP1 full length cDNA inserted into the […] two-hybrid system 3 vector pGBKT7 (Clontech). Briefly, the full-length coding region of THAP1 was amplified by PCR from HEVEC cDNA with primers 2HMR10 (5′-[…]-3′) (SEQ ID NO: 187) and 2HMR9 (5′-[…]-3′) (SEQ ID NO: 188), digested with EcoRI and BamHI, and cloned in frame downstream of the Gal4 Binding Domain (Gal4-BD) in pGBKT7 vector to generate pGBKT7-THAP1. pGBKT7-THAP1 was then cotransformed with the pGAD424-HEVEC cDNA library in yeast strain AH109 (Clontech). 1.5×10⁷ yeast transformants were screened and positive protein interactions were selected by His and Ade double auxotrophy according to manufacturer's instructions ([…] two-hybrid system 3, Clontech). The plates were incubated at 30° C. for 5 days. Plasmid DNA was extracted from these positive colonies and used to verify the specificity of the interaction by cotransformation in AH109 with pGBKT7-THAP1 or control baits pGBKT7, pGBKT7-lamin and pGBKT7-hevin. […] Positive interaction between THAP1 and Par4 was confirmed using full length Par4 bait (pGBKT-Par4) and prey (pGADT7-Par4). […]

[4] = molecular target: T3, THAP1-C2 deletion mutant (amino acids …); assay: yeast two-hybrid, Par4 wt bait
[5] = molecular target: T4, THAP1-N2 deletion mutant (amino acids …); assay: yeast two-hybrid, Par4 wt bait
[6] = molecular target: T5, THAP1-C3 deletion mutant (amino acids …); assay: yeast two-hybrid, Par4 wt bait
[7] = molecular target: T6, THAP1-N3 deletion mutant (amino acids …); assay: yeast two-hybrid, Par4 wt bait
[8] = molecular target: T7, THAP1-C1 deletion mutant (amino acids …); assay: yeast two-hybrid, Par4 wt bait
[9] = molecular target: T8, THAP1-N1 deletion mutant (amino acids …); assay: yeast two-hybrid, Par4 wt bait
[10] = molecular target: T9, human THAP3, full length; assay: yeast two-hybrid with Par-4 wild type bait
Method: (§3) To assess whether THAP2 and THAP3 are able to interact with Par-4, yeast two hybrid assays using Par-4 wild type bait (FIG. 10B) and in vitro GST pull down assays (FIG. 10C), were performed as described above (Examples 4 and 5). As shown in FIGS. 10B and 10C, THAP2 and THAP3 are able to interact with Par-4. A sequence alignment showing the comparison of the THAP domain and the PAR4-binding domain between THAP1, THAP2 and THAP3 is shown in FIG. 10A.

[11] = molecular target: T11, human THAP2, full length (human, UniProt Q9H0W7 1-228); assay: yeast two-hybrid with Par-4 wild type bait
T11 construct: Two-hybrid fusion or 35S-labelled in vitro translation product
T11 sequence (Q9H0W7 whole entry, the tested form may be a part): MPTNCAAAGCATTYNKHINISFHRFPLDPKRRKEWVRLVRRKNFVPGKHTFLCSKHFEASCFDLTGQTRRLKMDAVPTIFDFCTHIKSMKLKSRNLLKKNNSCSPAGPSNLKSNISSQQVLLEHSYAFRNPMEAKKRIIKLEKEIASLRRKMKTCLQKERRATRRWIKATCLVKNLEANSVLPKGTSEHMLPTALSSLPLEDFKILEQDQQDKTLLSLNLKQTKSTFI
Method: as §3

[12] = molecular target: T10, THAP1ΔQRCRR mutant (deletion of …); assay: yeast two-hybrid, Par4 wt bait
Method: for mutant THAP1ΔQRCRR. The resulting PCR fragments were digested with EcoRI and BamHI, and cloned in frame downstream of the Gal4 Binding Domain (Gal4-BD) in pGBKT7 two-hybrid vector (Clontech) to generate pGBKT7-THAP1-RR/AA and -Δ(QRCRR), or downstream of the Enhanced Green Fluorescent Protein (EGFP)ORF in pEGFP.C2 vector (Clontech) to generate pEGFP.C2-THAP1-RR/AA and -Δ(QRCRR). THAP1RR/AA and THAP1ΔQRCRR THAP1 mutants were then tested in the three THAP1/Par4 interaction assays (two-hybrid assay, in vitro THAP1/Par4 interaction assay, in vivo THAP1/Par4 interaction assay) as described above for the THAP1-C1, -C2, -C3, -N1, -N2 or -N3 mutants.

Row | Binder | Kd [1] | koff [2] | kon [2] | binding result [3] | binding result [4] | binding result [5] | binding result [6] | binding result [7] | binding result [8] | binding result [9] | binding result [10] | binding result [11] | binding result [12]
1 | B1 | 49 nM | 0.00229 s⁻¹ | 46400 M⁻¹ s⁻¹ |  |  |  |  |  |  |  |  |  | 
2 | B2 |  |  |  | binds | binds | no binding | binds | binds | binds | no binding | binds | binds | no binding
